# From article PMC12757795, “WRKY45 is a negative regulator of Botrytis cinerea resistance through the JA/ET signaling pathway in Arabidopsis”
# B1: ORA59-W3 (dsDNA)
# DNA 1: CCATCTAACAACAAATTTGACCAAAAGTTTCCTTATT
# DNA 2: AATAAGGAAACTTTTGGTCAAATTTGTTGTTAGATGG
# B2: ORA59-W2 (dsDNA)
# DNA 1: TAATCGCATCGCATGTTTGACCCATTTAGCCGCATAT
# DNA 2: ATATGCGGCTAAATGGGTCAAACATGCGATGCGATTA
# B3: ORA59-W1-M (dsDNA)
# DNA 1: CGATTTAGCCGCATGTTTTTCCTATTTTGCCCACATA
# DNA 2: TATGTGGGCAAAATAGGAAAAACATGCGGCTAAATCG
# B4: ORA59-W6 (dsDNA)
# DNA 1: GAAACCGACGTTAGGTTTGACTATTTTATTTACAGTC
# DNA 2: GACTGTAAATAAAATAGTCAAACCTAACGTCGGTTTC
# Molecular target: GST-WRKY45 (UniProt Q9S763 1-147)
# Test: EMSA; Beyotime chemiluminescent EMSA kit binding buffer (composition, salt and pH not stated), room temperature, 20 min, 6% native PAGE; unlabeled competitor 5x and 50x or 50-100x (Methods)
# Details: protein: recombinant; tags: GST; label: biotin (end); blunt
# GST-WRKY45, sequence (Q9S763 whole entry): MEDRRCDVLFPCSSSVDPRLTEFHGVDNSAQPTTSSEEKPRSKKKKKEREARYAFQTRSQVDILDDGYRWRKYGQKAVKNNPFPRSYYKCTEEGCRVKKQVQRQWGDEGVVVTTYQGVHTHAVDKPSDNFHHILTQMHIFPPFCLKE
row,Binder,binding result
1,B1,binds
2,B2,binds
3,B3,no binding
4,B4,binds
